Assay [1] addresses CHIKV envelope mutant E2-Y69A expressed on HEK-293T cells (Chikungunya virus (S27 strain), UniProt P0DOK1 326-748; Q8JUX5 810-1248).
Assay [2] deals with CHIKV envelope mutant E2-F84A expressed on HEK-293T cells (Chikungunya virus (S27 strain), UniProt P0DOK1 326-748; Q8JUX5 810-1248).
Assay [3] concerns the target CHIKV envelope mutant E2-V113A expressed on HEK-293T cells (Chikungunya virus (S27 strain), UniProt P0DOK1 326-748; Q8JUX5 810-1248).
The target of assay [4] is CHIKV envelope mutant E2-G114A expressed on HEK-293T cells (Chikungunya virus (S27 strain), UniProt P0DOK1 326-748; Q8JUX5 810-1248).
The target of assay [5] is CHIKV envelope mutant E2-T116A expressed on HEK-293T cells (Chikungunya virus (S27 strain), UniProt P0DOK1 326-748; Q8JUX5 810-1248).
Assay [6] has as its target CHIKV envelope mutant E2-D117A expressed on HEK-293T cells (Chikungunya virus (S27 strain), UniProt P0DOK1 326-748; Q8JUX5 810-1248).
The target of assay [7] is CHIKV E2/E1 envelope (S27 strain) displayed on particles (intact CHIKV VLPs, retroviral VLPs, pseudo (Chikungunya virus (S27 strain)) (UniProt P0DOK1)).
Assay [8] has the same target. Kind of assay: cell-based or functional assay.
Assay [9] has as its target CHIKV envelope mutant E2-E24A expressed on HEK-293T cells (Chikungunya virus (S27 strain)) (UniProt P0DOK1).
Assay [10] addresses CHIKV envelope mutant E2-G55A expressed on HEK-293T cells (Chikungunya virus (S27 strain)) (UniProt P0DOK1).
Assay [11] concerns the target CHIKV envelope mutant E2-I121A expressed on HEK-293T cells (Chikungunya virus (S27 strain)) (UniProt P0DOK1).
The target of assay [12] is CHIKV envelope mutant E2-K66A expressed on HEK-293T cells (Chikungunya virus (S27 strain)) (UniProt P0DOK1).
Assay [13] deals with CHIKV envelope mutant E2-R80A expressed on HEK-293T cells (Chikungunya virus (S27 strain)) (UniProt P0DOK1).
The target in assay [14] is CHIKV envelope mutant E2-W64A expressed on HEK-293T cells (Chikungunya virus (S27 strain)) (UniProt P0DOK1).
Assay [15] deals with CHIKV envelope mutant E2-A162S (Chikungunya virus (S27 strain)) (UniProt P0DOK1).
The target of assay [16] is CHIKV envelope mutant E2-E24A expressed on HEK-293T cells (Chikungunya virus (S27 strain)) (UniProt P0DOK1). This is another data set of the same source.
The target of assay [17] is CHIKV envelope mutant E2-G55A expressed on HEK-293T cells (Chikungunya virus (S27 strain)) (UniProt P0DOK1). This is another data set of the same source.
Assay [18] has as its target CHIKV envelope mutant E2-I121A expressed on HEK-293T cells (Chikungunya virus (S27 strain)) (UniProt P0DOK1). This is another data set of the same source.
For assay [19], the target named is CHIKV envelope mutant E2-R80A expressed on HEK-293T cells (Chikungunya virus (S27 strain)) (UniProt P0DOK1). The source holds these as a separate data set.
Assay [20] concerns the target CHIKV envelope mutant E2-W64A expressed on HEK-293T cells (Chikungunya virus (S27 strain)) (UniProt P0DOK1). The source holds these as a separate data set.
In assay [21] the target is T1, CHIKV E2/E1 envelope (S27 strain) displayed on particles (intact CHIKV VLPs, retroviral VLPs, pseudo (Chikungunya virus (S27 strain), UniProt P0DOK1 326-748; Q8JUX5 810-1248).
Assay [22] addresses T1, CHIKV E2/E1 envelope (S27 strain) …. Kind of assay: cell-based or functional assay.

B1: CAP101A-E8 (IM-CKV056), converted to full length human IgG (antibody, V domains shown)
VH: QVQLVQSGGGVVQPGRSLRLSCAASGFTLSTYGLHWVRQAPGKGLEWVAVISYDGTNKYYADSVKGRFTVSWDNSKNTLYLQMNSLRAEDTAVYYCAKDLASSSWSDYYHYGMDVWGQGTMVTVSS
VL: DIQLTQSPSTLSASVGDRITITCRATQSIGSWLAWYQQKPGKAPKLLIYKASSLESGVPSRFSGSGSATEFTLTISGLQPEDFATYYCQQLKSFPLTFGPGTKVDIQ
B1: the “reactivity relative to WT CHIKV env” value in assay [1], in [2], in assay [3], in assay [4], in assay [5] and in [6] was < 20 % of WT throughout.

B2: MAb CAP4A-E7 (IM-CKV063), human IgG1 (antibody, V domains shown)
VH: QVQLVQSGAEVKKPGSAVKVSCKASGGTLRKYAISWLRQAPGQGLEWMGGIIPIFGTANYAQKFQGRVTITADESTTTPYTTTPYTSTAYIELTSLRSEDTAVYYCARDLGPLTGYSYSYFDYWGQGTLVTVSS
VL: EIVMTQSPATLSLSPGERATLSCRASQSVSSYLAWYQQKPGQAPRLLIYDASNRATGIPDRFSGSGSGTDFTLTISRLEPEDFAVYYCQQYANSRRTFGQGTKVEIT
In the case of B2, in assay [7], the Kd is 0.32 nM, the koff amounted to 9.4e-05 s⁻¹ and the kon was found to be 290000 M⁻¹ s⁻¹. Moreover, in assay [8], the IC50, neutralization of reporter viruses pseudotyped with CHIKV S27 E2/E1 is 0.0074 µg/mL and the PRNT50, live CHIKV S27 on Vero cells worked out at 11 ng/mL.

B3: purified Fab CAP4A-E7 (Fab, V domains shown)
VH: QVQLVQSGAEVKKPGSAVKVSCKASGGTLRKYAISWLRQAPGQGLEWMGGIIPIFGTANYAQKFQGRVTITADESTTTPYTTTPYTSTAYIELTSLRSEDTAVYYCARDLGPLTGYSYSYFDYWGQGTLVTVSS
VL: EIVMTQSPATLSLSPGERATLSCRASQSVSSYLAWYQQKPGQAPRLLIYDASNRATGIPDRFSGSGSGTDFTLTISRLEPEDFAVYYCQQYANSRRTFGQGTKVEIT
Take B3: the binding relative to wild-type E2/E1 (% of wild-type) in assay [9], in assay [10], in assay [11], in assay [12], in assay [13] and in [14] was less than 20 throughout. Also, the percent wild-type reactivity (percent wild-type) in assay [15] is 37; in assay [16] it was 15; in assay [17] it was 12; in assay [18], 2; in assay [19], 3; in assay [20] it was 1.

B4: MAb CAP5A-F6 (IM-CKV065), human IgG1 (antibody, V domains shown)
VH: EVQLVQSGPEVKKPGASVKVSCKASGYTFSNYGVSWVRQAPGQGLEWLGWISAYNGNTKYAQKFEGRVTLTTDSLSDTAYMELRSLRSDDTAVYYCVRDDRSGYYYLPFDFWGQGTLVTVSS
VL: DIQLTQSPSFLSASVGDRVTITCRASQGISSYLAWYQQKPGKAPKLLIFAASTLQSGVPSRFSGSGSGTDYTLTISSLQPEDFATYYCQQSYSNPTFGQGTRLEIK
With B4, in [21], the dissociation constant Kd is 9.3 nM, the koff is 0.0015 s⁻¹ and the on-rate constant (kon) was found to be 160000 M⁻¹ s⁻¹. The “IC50, neutralization of reporter viruses pseudotyped with CHIKV S27 E2/E1” value in [22] was determined as 0.17 µg/mL.

These data come from patent US20160145323A1 (INTEGRAL MOLECULAR, published 2016).
